Test system: apoE4-expressing Neuro-2a cells
Experiment: Neurite outgrowth, apoE4-expressing Neuro-2a cells
Type: cell-based, mouse
Conditions: in the presence of β-VLDL
Protocol: Cells were grown in DME/F12 containing 10% FBS and G418 (400 μg/ml). On the day the experiment was initiated, the cells were subcultured into 35 mm plates in DME/F12 with 10% FBS. The cells were allowed to adhere to the plastic plates for 2 hr at 37° C., and then the culture medium was changed to N2 medium with or without increasing concentrations of lipoproteins. After 48 hr at 37° C., the media were replaced with the same medium (with or without lipoproteins), and the incubation was continued for an additional 48 hr. […] Neurons were imaged in fluorescence mode with a confocal laser scanning system (MRC-600, BioRad, Hercules, Calif.), and the images were digitized with an Image-1/AT image analysis system (Universal Images, West Chester, Pa.). The neuronal images were coded before characterization, and the following variables were measured: 1) number of neurites (defined as cell surface projections at least one-half the cell diameter) on each neuron; 2) neurite branching (the number of branch points on each neurite); and 3) neurite extension (the length of the longest neurite, measured from the cell body). Typically, in each experiment the neurites of 20 to 40 neurons per plate were measured and the results preserved as the mean±S.E.M. […]

B1: lactoferrin: blocks binding of lipoproteins to both HSPG and LRP (protein, UniProt P02788 20-710, looked up)
Lactotransferrin: GRRRSVQWCAVSQPEATKCFQWQRNMRKVRGPPVSCIKRDSPIQCIQAIAENRADAVTLDGGFIYEAGLAPYKLRPVAAEVYGTERQPRTHYYAVAVVKKGGSFQLNELQGLKSCHTGLRRTAGWNVPIGTLRPFLNWTGPPEPIEAAVARFFSASCVPGADKGQFPNLCRLCAGTGENKCAFSSQEPYFSYSGAFKCLRDGAGDVAFIRESTVFEDLSDEAERDEYELLCPDNTRKPVDKFKDCHLARVPSHAVVARSVNGKEDAIWNLLRQAQEKFGKDKSPKFQLFGSPSGQKDLLFKDSAIGFSRVPPRIDSGLYLGSGYFTAIQNLRKSEEEVAARRARVVWCAVGEQELRKCNQWSGLSEGSVTCSSASTTEDCIALVLKGEADAMSLDGGYVYTAGKCGLVPVLAENYKSQQSSDPDPNCVDRPVEGYLAVAVVRRSDTSLTWNSVKGKKSCHTAVDRTAGWNIPMGLLFNQTGSCKFDEYFSQSCAPGSDPRSNLCALCIGDEQGENKCVPNSNERYYGYTGAFRCLAENAGDVAFVKDVTVLQNTDGNNNEAWAKDLKLADFALLCLDGKRKPVTEARSCHLAMAPNHAVVSRMDKVERLKQVLLHQQAKFGRNGSDCPDKFCLFQSETKNLLFNDNTECLARLHGKTTYEKYLGPQYVAGITNLKKCSTSPLLEACEFLRK
inhibition of neurite extension seen in the apoE4-expressing cells: blocked the effects of apoE3 and apoE4 on neurite outgrowth

— patent publication US7964598B2 (The J. David Gladstone Institutes, priority 1995, dated 2011)
